Assay results as given in US8524227B2, “Anti-IL-TIF antibodies” (ZymoGenetics, Inc., priority 2002, dated 2013).

Columns and labels:
[1] = DSS-induced colitis mouse model; assay type: in vivo, mice; conditions: for histopathology screening score: 4% DSS in drinking water
Text: Colitis was induced by DSS ingestion in Swiss Webster female mice from Charles River Laboratories. The mice were 10 and 11 weeks old at the start of the study. Mice were given 4% DSS in the drinking water for a period of 6 days (treated mice), or were given only normal drinking water (control mice). A Disease Activity Index clinical score (DAI) was used, which comprises a combination of measurements including stool quality, occult blood and weight loss. DAI was obtained daily for each mouse beginning one day after DSS treatment. After 6 days, DSS was removed from the drinking water of the treated mice. All mice were monitored by DAI clinical score until sacrifice at either 2, 7 or 10 days from the start of the study. On each of days 2 and 7, four DSS-treated mice and one control mouse were sacrificed. On day 10, four DSS-treated mice and two control mice were sacrificed. For all animals after sacrifice, the colon length was measured. Colon sections were fixed in 10% neutral buffered formalin for histologic analysis or frozen for mRNA extraction.
Histologic index scores were obtained following the method in reference 1. Generally, the colon sections were scored blinded by a pathologist for crypt scores, hyperplastic epithelium, crypt distortion and inflammation.
Daily, each mouse was graded as to a clinical score based on weight loss, stool consistence and intestinal bleeding. Higher scores were assigned for increasing amounts of weight loss, diarrhea and bleeding. The daily score for each mouse was the mean grade obtained from the three results/observations.

[2] = IL-TIF-induced acanthosis, subcutaneous mini-osmotic pump; assay type: in vivo, mice; conditions: for Average Acanthosis: score 0-4
Protocol: Mice (female, C3H/HEJ, 8 weeks old; Jackson Labs, Bar Harbor, Me.) were divided into three groups of six animals and one group of 4. Human BHK-produced IL-TIF was administered by constant infusion via mini-osmotic pumps, resulting in local and steady state serum concentrations proportional to the concentration of the IL-TIF contained in the pump. Alzet mini-osmotic pumps (model 2002; Alza corporation Palo Alto, Calif.) were loaded under sterile conditions with IL-TIF protein (A601F, 0.22 mL) diluted in phosphate buffered saline (pH 7.0) to a concentration within the pump of 2 mg/mL for group 1 mice, 0.2 mg/mL for group 2 mice, 0.02 mg/mL for group 3 mice, or 0 mg/mL (diluent only) for group 4 mice. Pumps were implanted subcutaneously in mice through a 1 cm incision in the dorsal skin, and the skin was closed with sterile wound closures. These pumps are designed to deliver their contents at a rate of 0.5 μl per hour over a period of 14 days. Using this nominal rate of infusion, dose levels were calculated to be 24 μg/day, 2.4 μg/day, 0.24 μg/day and 0 μg/day for groups 1-4, respectively.
At the end of the 14-day period, the mice were euthanized and an approximately 1 cm square sample of skin surrounding the pump area was collected from each mouse. The skin was fixed in 10% neutral buffered formalin. Formalin fixed samples of skin were embedded in paraffin, routinely processed, sectioned at 5 um and stained with hematoxylin and eosin. The tissues were microscopically examined in blinded fashion by an ACVP board certified veterinary pathologist. […] In addition, the skin of selected groups was imaged with a CoolSnap digital camera (Roper Scientific, Inc., San Diego, Calif.) and epidermal thickness measured using histomorphometry software (Scion Image for Windows, v. 4.02, Scion Corp., Frederick, Md.).

K-562 cells = assay: K-562 cytotoxicity assay (MTT); assay type: cell-based, human; conditions: 72 h
Protocol: The K-562 cell line (CRL-243, ATCC) has attained widespread use as a highly sensitive in vitro target for cytotoxicity assays. K-562 blasts are multipotential, hematopoietic malignant cells that spontaneously differentiate into recognizable progenitors of the erythrocytic, granulocytic and monocytic series (Lozzio, B B et al., Proc. Soc. Exp. Biol. Med. 166: 546-550, 1981).
K562 cells were plated at 5,000 cells/well in 96-well tissue culture clusters (Costar) in DMEM phenol-free growth medium (Life Technologies) supplemented with pyruvate and 10% serum (HyClone). Next day, human recombinant IL-TIF (Example 19), BSA control or retinoic acid (known to be cytotoxic to K562 cells) were added. Seventy-two hours later, the vital stain MTT (Sigma, St Louis, Mo.), a widely used indicator of mitochondrial activity and cell growth, was added to the cells at a final concentration of 0.5 mg/ml. MTT is converted to a purple formazan derivative by mitochondrial dehydrogenases. Four hours later, converted MTT was solubilized by adding an equal volume of acidic isopropanol (0.04N HCl in absolute isopropanol) to the wells. Absorbance was measured at 570 nm, with background subtraction at 650 nm. In this experimental setting, absorbance reflects cell viability. Results shown in Table 7 are expressed as % cytotoxicity.

IL-TIF [3] = target: T1, IL-TIF (Homo sapiens, UniProt Q9GZX6); assay: Effect of zcytor16 on IL-TIF-induced acanthosis; assay type: in vivo, mice; conditions: for Average Acanthosis: day 8, score 0-3
T1 construct: made in house; host or cells: BHK cells
T1 sequence (Q9GZX6 34-179): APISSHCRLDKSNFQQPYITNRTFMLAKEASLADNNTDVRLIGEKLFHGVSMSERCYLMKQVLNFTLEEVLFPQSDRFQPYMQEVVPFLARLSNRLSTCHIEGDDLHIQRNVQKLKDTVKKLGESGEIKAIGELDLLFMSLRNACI
Protocol: Mice (female, C3H/HEJ, 8 weeks old; Jackson Labs, Bar Harbor, Me.) were divided into eight groups of eight animals each. IL-TIF was administered by constant infusion via mini-osmotic pumps, as described in example 32a. Alzet mini-osmotic pumps (model 2001; Alza corporation Palo Alto, Calif.) were loaded under sterile conditions with IL-TIF protein (A#601F, 0.22 mL) diluted in phosphate buffered saline (pH 7.0) to a concentration within the pump of 0.22 mg/mL for group 1-2 mice, 0.45 mg/mL for group 3-4 mice, 0.9 mg/mL for group 5-6 mice, or 0 mg/mL (diluent only) for group 7-8 mice. These pumps are designed to deliver their contents at a rate of 0.5 μl per hour over a period of 14 days. Using this nominal rate of infusion, dose levels were calculated to be […] and 0 μg/day for groups 7-8. For each pair of groups at a given dose level of IL-TIF, one of the groups was injected three times (days 1, 3, and 5) with 0.1 mg of human zcytor16 Fc protein (described herein) by the interperitoneal route. The other group was injected in the same fashion with vehicle (PBS).
On day 8 of the study, mice were euthanized and an approximately 1 cm square sample of skin surrounding the pump area was collected from each mouse. The skin was fixed in 10% neutral buffered formalin. Formalin fixed samples of skin were embedded in paraffin, routinely processed, sectioned at 5 um and stained with hematoxylin and eosin. The tissues were microscopically examined in blinded fashion by an ACVP board certified veterinary pathologist. This study was scored in a different manner than the previous example. The number of layers in the epidermis, from stratum basalis to stratum granulosum, was determined Based on the results, the sections were scored as follows: O-normal (2-3 layers), 1-mild thickening (3-4 layers), 2-moderate thickening (4-6 layers) and 3-severe thickening (>6 layers).

IL-TIF [4] = target: T2, IL-TIF (Homo sapiens, UniProt Q9GZX6); assay: Inhibition of IL-TIF-induced proliferation of BaF3/CRF2-4/zcytor11 cells by soluble receptors; assay type: cell-based; conditions: 100 pg/ml IL-TIF
T2 sequence (Q9GZX6 13-179 limits assumed): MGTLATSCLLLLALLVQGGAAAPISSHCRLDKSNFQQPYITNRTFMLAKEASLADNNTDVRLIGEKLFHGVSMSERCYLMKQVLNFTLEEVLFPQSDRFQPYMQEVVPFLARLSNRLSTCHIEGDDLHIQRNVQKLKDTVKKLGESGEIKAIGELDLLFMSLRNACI
Protocol: BaF3/CRF2-4/zcytor11 cells described herein were spun down and washed in PBS 2 times to ensure the removal of the mIL-3, and then spun a third time and re-suspended in the complete media (RPMI 1640, 10% FBS, 1% GlutaMAX, 1% Sodium Pyruvate), but without mIL-3 (hereinafter referred to as “mIL-3 free media”). Cells were then counted in a hemocytometer. Cells were plated in a 96-well format at 5000 cells per well in a volume of 100 μl per well using the mIL-3 free media.
IL-TIF protein (SEQ ID NO:3) was diluted to 200 pg/ml in mIL-3 free media. Zcytor16-Fc4 fusion protein (described herein) was diluted to 1 μg/ml in the mIL-3 free/IL-TIF media on the top row of the plate, and then diluted serially 1:2 down the remaining 7 rows on the 96-well plate, leaving a volume of 100 μl in each well. This was then added to the 100 μl of cells, for a final IL-TIF concentration of 100 pg/ml in all wells, and final Zcytor16-Fc4 concentrations of approximately […], 0.016, and 0.008 μg/ml in a total assay volume of 200 μl. CRF2-4/zcytor11-Fc4 was diluted to 8 μg/ml in the mIL-3 free/IL-TIF media on the top row of the plate, and then diluted serially 1:2 down the remaining 7 rows on the 96-well plate, leaving a volume of 100 μl in each well. This was then added to the 100 μl of cells, for a final IL-TIF concentration of 100 pg/ml in all wells, and final CRF2-4/zcytor11-Fc4 concentrations of approximately […], 0.25, 0.125 and 0.063 μg/ml, in a total assay volume of 200 The assay plates were incubated at 37° C., 5% CO2 for 4 days at which time Alamar Blue (Accumed, Chicago, Ill.) was added at […]. Plates were again incubated at 37° C., 5% CO2 for 16 hours. Alamar Blue gives a fluourometric readout based on number of live cells, and is thus a direct measurement of cell proliferation in comparison to a negative control. Plates were read on the Wallac Victor 2 1420 Multilabel Counter (Wallac, Turku, Finland) at wavelengths 530 (Excitation) and 590 (Emmssion). […] IL-TIF alone stimulated the cells 13-fold over background.

## dextran sulfate sodium [DSS]
[1]; day 2
  histopathology screening score: 8.8
[1]; day 7
  histopathology screening score: 21
[1]; day 10
  histopathology screening score: 18
[1]; days 7 and 10
  colon lengths vs non-treated controls: somewhat shorter

B1: IL-TIF: pro-inflammatory cytokine polypeptide, SEQ ID NO:3; also designated IL-22 (protein, listed as Homo sapiens)
chain: MGTLATSCLLLLALLVQGGAAAPISSHCRLDKSNFQQPYITNRTFMLAKEASLADNNTDVRLIGEKLFHGVSMSERCYLMKQVLNFTLEEVLFPQSDRFQPYMQEVVPFLARLSNRLSTCHIEGDDLHIQRNVQKLKDTVKKLGESGEIKAIGELDLLFMSLRNACI
[2]; 0.24 μg IL-TIF/day, 14 days
  Average Acanthosis: 2.2
[2]; 2.4 μg IL-TIF/day, 14 days
  Measured Thickness: 67.5 pixels
  Average Acanthosis: 2.4
[2]; 24 μg IL-TIF/day, 14 days
  Average Acanthosis: 3.0
[2]; 2.4 and 24 μg/day
  skin histology: epidermal thickening
[2]; not observed in vehicle treated controls
  cell infiltrates: mononuclear cell infiltrates in the epidermis
K-562 cells; 100 ng/ml
  % Cytotoxicity: 16.2%
K-562 cells; 300 ng/ml
  % Cytotoxicity: 32%
IL-TIF [3]; IL-TIF at 2.5, 5, 10 μg/day
  skin histology: epidermal thickening
IL-TIF [3]; pump 2.5 μg IL-TIF/day + 100 μL vehicle (3 injections)
  Average Acanthosis: 1.1
IL-TIF [3]; pump 5 μg IL-TIF/day + 100 μL vehicle (3 injections)
  Average Acanthosis: 2.0
IL-TIF [3]; pump 10 μg IL-TIF/day + 100 μL vehicle (3 injections)
  Average Acanthosis: 2.0

B2: CRF2-4/zcytor11-Fc4: secreted heterodimer of extracellular domains of hzcytor11 and CRF2-4, each fused to Fc4 (protein)
chain 1: HAPEDPSDLLQHVKFQSSNFENILTWDSGPEGTPDTVYSIEYKTYGERDWVAKKGCQRITRKSCNLTVETGNLTELYYARVTAVSAGGRSATKMTDRFSSLQHTTLKPPDVTCISKVRSIQMIVHPTPTPIRAGDGHRLTLEDIFHDLFYHLELQVNRTYQMHLGGKQREYEFFGLTPDTEFLGTIMICVPTWAKESAPYMCRVKTLPDRTWTGSGSGSGSEPRSSDKTHTCPPCPAPEAEGAPSVFLFPPKPKDTLMISRTPEVTCVVVDVSHEDPEVKFNWYVDGVEVHNAKTKPREEQYNSTYRVVSVLTVLHQDWLNGKEYKCKVSNKALPSSIEKTISKAKGQPREPQVYTLPPSRDELTKNQVSLTCLVKGFYPSDIAVEWESNGQPENNYKTTPPVLDSDGSFFLYSKLTVDKSRWQQGNVFSCSVMHEALHNHYTQKSLSLSPGKLVPRGSGSGGEYMPME
chain 2: MVPPPENVRMNSVNFKNILQWESPAFAKGNLTFTAQYLSYRIFQDKCMNTTLTECDFSSLSKYGDHTLRVRAEFADEHSDWVNITFCPVDDTIIGPPGMQVEVLDDSLHMRFLAPKIENEYETWTMKNVYNSWTYNVQYWKNGTDEKFQITPQYDFEVLRNLEPWTTYCVQVRGFLPDRNKAGEWSEPVCEQTTHDETVPSGSGSGSGSEPRSSDKTHTCPPCPAPEAEGAPSVFLFPPKPKDTLMISRTPEVTCVVVDVSHEDPEVKFNWYVDGVEVHNAKTKPREEQYNSTYRVVSVLTVLHQDWLNGKEYKCKVSNKALPSSIEKTISKAKGQPREPQVYTLPPSRDELTKNQVSLTCLVKGFYPSDIAVEWESNGQPENNYKTTPPVLDSDGSFFLYSKLTVDKSRWQQGNVFSCSVMHEALHNHYTQKSLSLSPGKGSGGHHHHHH
modifications: left off: small tags and cut ends
notes: secreted heterodimer of extracellular domains of hzcytor11 and CRF2-4, each fused to Fc4
IL-TIF [4]
  concentrations completely inhibiting proliferation: 8 µg/mL
  concentrations partially inhibiting proliferation: 0.125 to 4 µg/mL
  inhibition of the proliferative effect of IL-TIF: much weaker inhibition
IL-TIF [4]; 63 ng/ml
  inhibition at lowest concentration: barely detectable
